Assay results: patent US11208452B2

biological target: human insulin receptor IR-A (solubilised holoreceptor) (human) (UniProt P06213); assay: competition SPA: displacement of [125I-A14Y]-human insulin from solubilised human IR-A, relative to human insulin standard

Substance | Receptor binding (hIRA) SPA, sup % relative to HI (% relative to HI)
A21G, A22Q, A23P, A24A(GQPA)49, desB30 human insulin (from UniProt P01308) (ligand) | 5.53
A21G(GQAP)50, desB30 human insulin (from UniProt P01308) (ligand) | 4.56
A21G(GQE)67, desB30 human insulin (from UniProt P01308) (ligand) | 6.6
A21G(GQAP)150, desB30 human insulin (from UniProt P01308) (ligand) | 2.87
A21G, A22P, A23Q, A24A(GPQA)49, desB30 human insulin (from UniProt P01308) (ligand) | 5.26
A21G(GPQA)50, desB30 human insulin (from UniProt P01308) (ligand) | 5.05
A21G(GPHE)50, desB30 human insulin (from UniProt P01308) (ligand) | 7.85
A21G(GEH)67, desB30 human insulin (from UniProt P01308) (ligand) | 4.85
A21G(GHEQ)50, desB30 human insulin (from UniProt P01308) (ligand) | 6.7
A21G(GQAP)125, desB30 human insulin (from UniProt P01308) (ligand) | 2.65
A21G(GQAP)62, desB30 human insulin (from UniProt P01308) (ligand) | 4.45
A14E, A21G(GQEP)50, B25H, desB30 human insulin (from UniProt P01308) (ligand) | 3
A21Q(GQEP)50, desB30 human insulin (from UniProt P01308) (ligand) | 8.54
A21G(GQPA)50, desB30 human insulin (from UniProt P01308) (ligand) | 4.26
A21G(GQAP)44, desB30 human insulin (from UniProt P01308) (ligand) | 6.34
A14E, A21G(GQAP)50, B25H, desB30 human insulin (from UniProt P01308) (ligand) | 3.15
A21G(GPEQ)50, desB30 human insulin (from UniProt P01308) (ligand) | 8.18
A21G(GAQ)67, desB30 human insulin (from UniProt P01308) (ligand) | 6.99

Substance | Receptor binding (hIRA) SPA, sup % relative to HI (% relative to HI)
A21Q(GAPQ)50, desB30 human insulin (from UniProt P01308) (ligand) | 7.52
A21G(GHQE)50, desB30 human insulin (from UniProt P01308) (ligand) | 9.41
A14E, A21G(GAPQ)50, B25H, desB30 human insulin (from UniProt P01308) (ligand) | 3.13
A21G, A22A, A23Q, A24P(GAQP)49, desB30 human insulin (from UniProt P01308) (ligand) | 4.38
A21G(GHPE)50, desB30 human insulin (from UniProt P01308) (ligand) | 3.47
A21G, A22A, A23P, A24Q(GAPQ)49, desB30 human insulin (from UniProt P01308) (ligand) | 9.98
A14E, A21G(GQAP)75, B25H, desB30 human insulin (from UniProt P01308) (ligand) | 2.41
A21Q(GQAP)50, desB30 human insulin (from UniProt P01308) (ligand) | 6.55
A21G(GQAP)37, desB30 human insulin (from UniProt P01308) (ligand) | 5.33
A21G(GQAP)100, desB30 human insulin (from UniProt P01308) (ligand) | 3.19
A21G(GQPE)50, desB30 human insulin (from UniProt P01308) (ligand) | 4.09
A21G, B1F(GQAP)100, desB30 human insulin (from UniProt P01308) (ligand) | 4.98
A21G, A22A, A23Q, A24P(GAQP)62, desB30 human insulin (from UniProt P01308) (ligand) | 3.89
A21G, A22Q, A23P(GQP)66, desB30 human insulin (from UniProt P01308) (ligand) | 0.08
A21G, A22Q, A23A, A24P(GQAP)49, desB30 human insulin (from UniProt P01308) (ligand) | 4.92
A14E, A21G(GEPH)50, B25H, desB30 human insulin (from UniProt P01308) (ligand) | 3.3
A21G(GEQ)67, desB30 human insulin (from UniProt P01308) (ligand) | 8.48

The next lines start with the values.

Receptor binding (hIRA) SPA, sup % relative to HI (% relative to HI) | Substance
8.24 | A21G(GEPQ)50, desB30 human insulin (from UniProt P01308) (ligand)
5.09 | A21Q(GEPH)50, desB30 human insulin (from UniProt P01308) (ligand)
6.53 | A21G(GPQE)50, desB30 human insulin (from UniProt P01308) (ligand)
5.99 | A21G(GQEH)50, desB30 human insulin (from UniProt P01308) (ligand)
6.5 | A21G(GPAQ)50, desB30 human insulin (from UniProt P01308) (ligand)
2.1 | A14E, A21G(GQAP)150, B25H, desB30 human insulin (from UniProt P01308) (ligand)
5.41 | A21Q(GEHP)50, desB30 human insulin (from UniProt P01308) (ligand)
10.1 | A21G(GPEH)50, desB30 human insulin (from UniProt P01308) (ligand)
7.77 | A21G(GEQH)50, desB30 human insulin (from UniProt P01308) (ligand)
4.19 | A21G(GQAP)75, desB30 human insulin (from UniProt P01308) (ligand)
4.2 | A21G(GQAP)69, desB30 human insulin (from UniProt P01308) (ligand)
7.83 | A21G(GQHE)50, desB30 human insulin (from UniProt P01308) (ligand)
8.38 | A21G, B1F(GQAP)50, desB30 human insulin (from UniProt P01308) (ligand)
3.49 | A21G(GQAP)56, desB30 human insulin (from UniProt P01308) (ligand)
9.04 | A21G(GEQP)50, desB30 human insulin (from UniProt P01308) (ligand)
4.55 | A21G(GQAP)31, desB30 human insulin (from UniProt P01308) (ligand)
4.66 | A21G(GAQP)50, desB30 human insulin (from UniProt P01308) (ligand)
5.7 | A21G, A22P, A23A, A24Q(GPAQ)49, desB30 human insulin (from UniProt P01308) (ligand)
4.11 | A21G(GQA)67, desB30 human insulin (from UniProt P01308) (ligand)
3.1 | A14E, A21G(GEHP)50, B25H, desB30 human insulin (from UniProt P01308) (ligand)
4.06 | A21G(GQEPGQHP)25, desB30 human insulin (from UniProt P01308) (ligand)
4.67 | A21G(GHEP)50, desB30 human insulin (from UniProt P01308) (ligand)
5.71 | A21G, A22A, A23Q, A24P(GAQP)37, desB30 human insulin (from UniProt P01308) (ligand)
